Source: patent US20230192846A1 (University of California, published 2023)
Where two headings read alike, the source gives them in different places. One block for each binder: values may come before it.

Assays:
[1] = molecular target: T1, recombinant human ROR2-extracellular domain (ROR2-ECD) (human, UniProt Q01974 34-403); assay: KinExA 3200 kinetic exclusion assay; free mAb captured on particles coated with ROR2 protein, soluble ROR2 as titrant
T1 construct: also called recombinant ROR2-extracellular protein; recombinant ROR2 protein
Method: (§1) FIGS. 4A and 4B. Affinity measurement of binding of the 6E6 and 4G9 mAb to recombinant ROR2 protein. (FIG. 4A) Analysis was performed using a KinExA 3200 instrument. The proportion of anti-human ROR2 mAb bound to particles coated with ROR2 protein (y-axis) in the presence of increasing molar (M) concentration of soluble ROR2 competitor (x-axis) is shown for 6E6 (upper panel) and 4G9 (lower panel). (FIG. 4B) Illustration of the 95% confidence interval for the measured Kd of 6E6 (upper panel) and 4G9 (lower panel) for binding to human ROR2.
(§2) Applicants assessed binding specificity and relative affinities of each mAb using recombinant ROR2-extracellular protein in an ELISA assay, in which binding was measured using decreasing/limiting amounts of ROR2 protein and assessed in combination with decreasing concentrations of each of the four mAb (FIG. 3). Higher absorbance values for 6E6 and 4G9 at both lower ROR2 protein amounts and lower concentrations of mAb, indicate these mAb have higher affinities compared to 5C11 and 5G3. Equilibrium dissociation constants (Kd) were measured in a kinetic exclusion assay (KinExA) that measures the equilibrium binding affinity and kinetics between unmodified molecules in solution.

[2] = molecular target: T1, recombinant human ROR2-extracellular …; assay: kinetic exclusion assay (KinExA), soluble recombinant ROR2
Method: as §1, §2

[3] = molecular target: T2, hCRD (mouse;human, UniProt Q9Z138;Q01974); assay: dot blot; recombinant protein on nylon membrane, probed with the mAb, HRP anti-mouse IgG
T2 construct: N-terminal part of the extracellular portion;cysteine rich domain (CRD);C-terminal part of the extracellular portion; also called chimeric human/mouse recombinant ROR2 extracellular construct that contains the cysteine rich domain of human ROR2
Text: (§3) FIG. 5. Identification of the binding regions of anti-human ROR2 mAb by assessment of binding to chimeric […] recombinant ROR2 protein. […] Each recombinant protein was transferred onto nylon membrane, probed with the 6E6, 4G9, 5C11, 5G3 or anti-his tag mAb, and detected with an anti-mouse IgG antibody conjugated with horse radish peroxidase, as shown in the right panel. The […] and 5C11 mAbs bind to ROR2 recombinant proteins that contain the human kringle domain.
(§4) Applicants developed a series recombinant human/mouse hybrid proteins that isolate specific domains of the human ROR2 protein. These recombinant proteins were used to identify the specific binding domains that each of the four mAb target (FIG. 5). The 6E6 and 5C11 mAb bind to the Kringle domain of human, but not mouse, ROR2. […] None of the four mAb bind mouse ROR2.

[4] = molecular target: T3, h1-160 aa (human;mouse, UniProt Q01974;Q9Z138); assay: as above
T3 construct: N-terminal part of the extracellular portion;C-terminal part of the extracellular portion; also called chimeric human/mouse recombinant ROR2 extracellular construct with the first 160 amino acids of human ROR2
Text: as §3, §4

[5] = molecular target: T4, mouse ROR2 (recombinant extracellular portion) (mouse, UniProt Q9Z138 34-403); assay: as above
Text: as §3, §4

[6] = molecular target: T5, h1-111 aa (human;mouse, UniProt Q01974;Q9Z138); assay: as above
T5 construct: N-terminal part of the extracellular portion;C-terminal part of the extracellular portion; A tag is not described, but the blot was also probed with an anti-his tag mAb
Text: as §3, §4

[7] = molecular target: T6, recombinant human ROR2 with histidine 349 replaced by the arginine of mouse ROR2 (human, UniProt Q01974 34-403); assay: as above
T6 construct: also called human ROR2 H349R

[8] = molecular target: T7, recombinant human ROR2 with aspartic acid 354 replaced by the glutamic acid of mouse ROR2 (human, UniProt Q01974 34-403); assay: as above
T7 construct: also called human ROR2 D354E

[9] = molecular target: T1, recombinant human ROR2-extracellular …; assay: kinetic exclusion assay (KinExA), soluble recombinant ROR2; remark: listed apart in the source
Method: as §1, §2

[10] = molecular target: T8, hKringle (mouse;human, UniProt Q9Z138;Q01974); assay: dot blot; recombinant protein on nylon membrane, probed with the mAb, HRP anti-mouse IgG
T8 construct: N-terminal part of the extracellular portion;C-terminal part of the extracellular portion with the Kringle domain; also called chimeric human/mouse recombinant ROR2 extracellular construct that contains the Kringle domain of human ROR2
Text: as §3, §4

[11] = molecular target: T8, hKringle; assay: as above; remark: listed apart in the source
[12] = molecular target: T4, mouse ROR2 (recombinant extracellular …); assay: as above; remark: listed apart in the source
[13] = molecular target: T1, recombinant human ROR2-extracellular …; assay: KinExA 3200 kinetic exclusion assay; free scFv captured on particles coated with recombinant ROR2 protein, soluble ROR2 as titrant
Method: FIGS. 12A and 12B. Affinity measurement and binding specificity of the 6E6 single chain variable fragment (scFv) for human ROR2. Analysis was performed using a KinExA 3200 instrument. (FIG. 12A) The proportion of the 6E6 anti-human ROR2 scFv bound to particles coated with recombinant ROR2 protein (y-axis) in the presence of increasing molar (M) concentration of soluble ROR2 competitor (x-axis) is shown. (FIG. 12B) Illustration of the 95% confidence interval for the measured Kd of 6E6 scFv for binding to recombinant human ROR2. (FIG. 12C) Binding of the 6E6 scFv to ROR2 was assessed by flow cytometric staining and analysis of K562 (ROR2 positive) and JEKO (ROR2 negative) cells. Cells were stained on ice for 20 minutes with ~1 ug/ml of 6E6 anti-human ROR2 scfv, washed, stained for an additional 20 minutes on ice with phycoerythrin (PE)-conjugated anti-human IgG1 antibody, washed and analyzed by flow cytometry. Shaded histograms depict the relative fluorescence intensity (x axis) of viable cells, as determined by light scatter characteristics, stained with 6E6 scfv compared to viable cells stained with the anti-human IgG1-PE antibody only (open histograms).

[14] = molecular target: T9, human ROR2 expressed on cells (human, UniProt Q01974 34-943); assay: flow cytometry on ROR2-expressing cells
T9 construct: Full-length human ROR2 entry; endogenous on cell lines and PDX cells, transfected in MCF7-ROR2; also called ROR2 surface antigen; human ROR2 on K562, BR1936 PDX, MCF7-ROR2 and other ROR2-expressing cell lines

[15] = molecular target: T1, recombinant human ROR2-extracellular …; assay: ELISA
[16] = molecular target: T10, recombinant human ROR2 with methionine 386 replaced by the valine of mouse ROR2 (human, UniProt Q01974 34-403); assay: dot blot; recombinant protein on nylon membrane, probed with the mAb, HRP anti-mouse IgG
T10 construct: also called human ROR2 M386V
T10 sequence (Q01974 other isoform, or with tags, fused parts or gaps limits assumed): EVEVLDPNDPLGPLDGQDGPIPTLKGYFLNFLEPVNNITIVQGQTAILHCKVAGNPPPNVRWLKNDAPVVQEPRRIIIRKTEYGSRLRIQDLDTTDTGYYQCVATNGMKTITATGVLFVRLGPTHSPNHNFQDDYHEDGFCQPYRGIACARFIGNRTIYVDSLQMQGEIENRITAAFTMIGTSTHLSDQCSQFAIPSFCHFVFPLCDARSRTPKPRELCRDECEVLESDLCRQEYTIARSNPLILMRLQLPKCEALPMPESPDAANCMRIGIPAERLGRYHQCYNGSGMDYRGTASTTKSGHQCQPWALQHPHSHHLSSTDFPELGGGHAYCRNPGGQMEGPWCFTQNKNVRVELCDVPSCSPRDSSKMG

T1 sequence (Q01974 34-403 limits assumed): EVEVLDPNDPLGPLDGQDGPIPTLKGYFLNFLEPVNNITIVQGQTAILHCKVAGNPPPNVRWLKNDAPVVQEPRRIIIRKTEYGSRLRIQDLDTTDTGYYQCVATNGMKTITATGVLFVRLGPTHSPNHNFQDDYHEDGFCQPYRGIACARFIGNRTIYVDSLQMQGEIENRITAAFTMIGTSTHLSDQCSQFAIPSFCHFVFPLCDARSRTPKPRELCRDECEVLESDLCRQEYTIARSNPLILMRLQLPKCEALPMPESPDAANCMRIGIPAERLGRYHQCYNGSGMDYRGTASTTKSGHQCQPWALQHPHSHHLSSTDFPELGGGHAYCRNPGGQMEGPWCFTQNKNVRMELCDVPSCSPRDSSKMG
T4 sequence (Q9Z138 other isoform, or with tags, fused parts or gaps limits assumed): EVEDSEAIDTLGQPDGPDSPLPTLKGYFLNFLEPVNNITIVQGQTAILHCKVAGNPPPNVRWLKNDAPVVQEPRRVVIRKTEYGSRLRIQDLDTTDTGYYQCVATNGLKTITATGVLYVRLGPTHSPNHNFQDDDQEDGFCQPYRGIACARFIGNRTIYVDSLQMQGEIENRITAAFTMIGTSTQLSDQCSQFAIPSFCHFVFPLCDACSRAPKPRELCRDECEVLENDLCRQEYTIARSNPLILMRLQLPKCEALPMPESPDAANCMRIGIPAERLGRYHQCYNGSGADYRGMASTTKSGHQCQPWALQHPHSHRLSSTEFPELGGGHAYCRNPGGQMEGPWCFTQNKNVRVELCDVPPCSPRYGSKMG
T2 sequence (Q9Z138 other isoform, or with tags, fused parts or gaps limits assumed): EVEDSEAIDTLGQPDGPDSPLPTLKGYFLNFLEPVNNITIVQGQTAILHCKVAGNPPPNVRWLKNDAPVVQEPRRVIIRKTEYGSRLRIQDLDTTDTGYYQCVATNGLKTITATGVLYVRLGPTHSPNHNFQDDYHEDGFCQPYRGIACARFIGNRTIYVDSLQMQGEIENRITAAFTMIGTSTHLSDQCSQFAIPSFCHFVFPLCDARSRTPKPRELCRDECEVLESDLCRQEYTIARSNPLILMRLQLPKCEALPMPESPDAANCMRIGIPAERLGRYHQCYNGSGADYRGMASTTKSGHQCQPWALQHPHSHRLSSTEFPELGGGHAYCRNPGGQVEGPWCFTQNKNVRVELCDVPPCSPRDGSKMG
T5 sequence (Q01974 other isoform, or with tags, fused parts or gaps limits assumed): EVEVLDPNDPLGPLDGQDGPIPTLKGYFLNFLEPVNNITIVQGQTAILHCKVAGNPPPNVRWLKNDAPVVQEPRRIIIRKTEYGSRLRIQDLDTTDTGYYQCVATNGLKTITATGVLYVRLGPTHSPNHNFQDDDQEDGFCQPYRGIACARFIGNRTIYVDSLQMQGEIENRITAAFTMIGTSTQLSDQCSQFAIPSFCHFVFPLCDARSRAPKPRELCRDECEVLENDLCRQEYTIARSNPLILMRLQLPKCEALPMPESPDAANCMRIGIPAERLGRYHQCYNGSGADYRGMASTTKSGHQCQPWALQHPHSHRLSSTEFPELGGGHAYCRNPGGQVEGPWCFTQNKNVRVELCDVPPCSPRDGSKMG
T8 sequence (Q9Z138 other isoform, or with tags, fused parts or gaps limits assumed): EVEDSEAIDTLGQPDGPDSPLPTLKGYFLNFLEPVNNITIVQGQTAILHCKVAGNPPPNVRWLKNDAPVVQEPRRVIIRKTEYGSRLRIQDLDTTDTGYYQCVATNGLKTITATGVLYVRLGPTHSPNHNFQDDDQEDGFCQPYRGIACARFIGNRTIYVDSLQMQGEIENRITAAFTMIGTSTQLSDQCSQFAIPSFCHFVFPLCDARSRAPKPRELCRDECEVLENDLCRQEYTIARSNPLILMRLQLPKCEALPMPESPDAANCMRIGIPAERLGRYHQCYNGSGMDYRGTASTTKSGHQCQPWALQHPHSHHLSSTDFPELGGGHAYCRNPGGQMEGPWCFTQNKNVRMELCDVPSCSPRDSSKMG
T3 sequence (Q01974 other isoform, or with tags, fused parts or gaps limits assumed): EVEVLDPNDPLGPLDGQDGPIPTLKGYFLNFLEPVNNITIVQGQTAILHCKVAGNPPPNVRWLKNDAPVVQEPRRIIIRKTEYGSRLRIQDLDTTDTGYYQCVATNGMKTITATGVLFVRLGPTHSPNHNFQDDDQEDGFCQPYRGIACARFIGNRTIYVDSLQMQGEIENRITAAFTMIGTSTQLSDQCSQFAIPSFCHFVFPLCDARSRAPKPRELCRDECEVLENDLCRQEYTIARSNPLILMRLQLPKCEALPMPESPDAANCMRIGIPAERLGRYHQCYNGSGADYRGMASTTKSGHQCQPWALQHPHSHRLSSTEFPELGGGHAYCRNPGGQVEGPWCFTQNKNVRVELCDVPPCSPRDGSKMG
T7 sequence (Q01974 34-403 D354E limits assumed): as the sequence (Q01974 34-403 limits assumed) above, with D321E counted along it
T6 sequence (Q01974 34-403 H349R limits assumed): as the sequence (Q01974 34-403 limits assumed) above, with H316R counted along it
T9 sequence (Q01974 34-943 limits assumed): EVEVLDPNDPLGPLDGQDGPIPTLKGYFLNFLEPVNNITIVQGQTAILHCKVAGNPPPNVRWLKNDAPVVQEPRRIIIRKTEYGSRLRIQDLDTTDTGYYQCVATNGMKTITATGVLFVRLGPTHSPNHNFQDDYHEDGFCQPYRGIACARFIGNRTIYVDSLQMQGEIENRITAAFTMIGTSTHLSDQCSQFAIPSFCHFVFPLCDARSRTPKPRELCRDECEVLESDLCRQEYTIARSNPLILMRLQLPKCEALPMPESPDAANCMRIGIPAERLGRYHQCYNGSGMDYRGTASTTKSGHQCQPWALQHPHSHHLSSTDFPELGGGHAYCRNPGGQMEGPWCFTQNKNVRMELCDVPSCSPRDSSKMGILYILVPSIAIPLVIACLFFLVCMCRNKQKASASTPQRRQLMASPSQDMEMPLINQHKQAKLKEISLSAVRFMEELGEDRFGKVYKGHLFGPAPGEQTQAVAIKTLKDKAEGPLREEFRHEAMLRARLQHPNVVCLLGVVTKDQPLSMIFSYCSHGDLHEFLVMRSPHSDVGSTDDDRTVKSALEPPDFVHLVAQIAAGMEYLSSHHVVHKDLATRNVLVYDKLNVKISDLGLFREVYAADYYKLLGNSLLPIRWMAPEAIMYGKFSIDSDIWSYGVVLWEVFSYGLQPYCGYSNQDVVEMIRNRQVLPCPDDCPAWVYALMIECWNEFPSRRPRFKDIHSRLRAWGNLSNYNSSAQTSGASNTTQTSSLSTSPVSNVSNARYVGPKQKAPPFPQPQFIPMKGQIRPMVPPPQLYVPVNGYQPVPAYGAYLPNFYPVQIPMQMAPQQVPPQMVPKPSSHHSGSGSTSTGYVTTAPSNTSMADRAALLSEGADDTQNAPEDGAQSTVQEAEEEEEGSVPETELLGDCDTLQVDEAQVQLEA

B4: 6E6 single chain variable fragment (scFv) (scFv)
scFv: DIVMTQSHKFMSTSIGDRVSITCKASQDVGHYVAWYQQKPGQSPKLLIYWASTRHTGVPDRFTGSGSGTDFTLTISNVQSEDLADYFCQQYNIYPWTFGGGSKLAIKGSTSGSGKPGSGEGSTKGEVQLVESGGDLVKPGGSLKLSCAASGFTFSNYGMSWVRQTPDKRLEWVATISSGGGYTHYVDSVKGRFTISRDNANHILYLQMSSLNSEDTAMYYCARHPRDFSYAMDYWGQGTSVTVSSEFLFPPKPKDTLMISRTPEVTCVVVDVSHEDPEVKFNWYVDGVEVHNAKTKPREEQYNSTYRVVSVLTVLHQDWLNGKEYKCKVSNKALPAPIEKTISKAKGQPREPQVYTLPPSREEMTKNQVSLTCLVKGFYPSDIAVEWESNGQPENNYKTTPPVLDSDGSFFLYSKLTVDESRWQQGNVFSCSVMHEALHNHYTQKSLSLSPGK
notes: scFv fused to CH2-CH3 of human IgG1; the leader is left out here; also called 6E6 scFv; 6E6 anti-human ROR2 scFv
- Kd [13]: 0.0737 nM

B5: 4G9 single chain variable fragment (scFv) (scFv)
scFv: DIVMTQAAPSVPVTPGESVSISCRSSKSLLHSNGNTYLYWFLQRPGQSPQLLIYRMSNLASGVPDRFSGSGSGTAFTLRISRVEAEDVGVYYCMQHLEYPLTVGAGTKLELKGSTSGSGKPGSGEGSTKGQVQLQQSGAELVRPGASVKLSCKALGYTFTDYEMHWVKQTPVHGLEWIGAIHPGSGGTAYNQKFKGKATLTADKSSSTAYMELSRLTSEDSAVYYCTRRRPRFYGMDYWGQGTSVTVSSEFLFPPKPKDTLMISRTPEVTCVVVDVSHEDPEVKFNWYVDGVEVHNAKTKPREEQYNSTYRVVSVLTVLHQDWLNGKEYKCKVSNKALPAPIEKTISKAKGQPREPQVYTLPPSREEMTKNQVSLTCLVKGFYPSDIAVEWESNGQPENNYKTTPPVLDSDGSFFLYSKLTVDESRWQQGNVFSCSVMHEALHNHYTQKSLSLSPGK
notes: scFv fused to CH2-CH3 of human IgG1; the leader is left out here; also called 4G9 scFv
- binding result [14]: binds
- binding result [15]: binds

Further lines, results first:

- Kd [1]: 0.0556 nM
- Kd [2]: < 0.1 nM
- binding result [3]: no binding
- binding result [4]: no binding
- binding result [5]: no binding
- binding result [6]: no binding
- binding result [7]: no binding
- binding result [8]: no binding
- Kd [9]: ~0.1 nM
B1: 6E6 anti-human ROR2 monoclonal antibody (antibody, IgG1, V domains shown)
VH: EVQLVESGGDLVKPGGSLKLSCAASGFTFSNYGMSWVRQTPDKRLEWVATISSGGGYTHYVDSVKGRFTISRDNANHILYLQMSSLNSEDTAMYYCARHPRDFSYAMDYWGQGTSVTVSS
VL: DIVMTQSHKFMSTSIGDRVSITCKASQDVGHYVAWYQQKPGQSPKLLIYWASTRHTGVPDRFTGSGSGTDFTLTISNVQSEDLADYFCQQYNIYPWTFGGGSKLAIK
notes: Used conjugated with Alexa647 in flow cytometry and with pHrodo in the internalisation assay; also called 6E6 mAb

- Kd [2]: > 40 nM
- binding result [10]: no binding
- binding result [3]: no binding
- binding result [5]: no binding
B2: 5G3 anti-human ROR2 monoclonal antibody (antibody, IgG2a, V domains shown)
VH: EVQLVESGGGLVQPKGSLKLSCAASGFTFNTYAMNWVRQAPGKGLEWVARIRSKSNNYATYYADSVKDRFTISRDDSQSMLHLQMNNLKTEDTAMYYCVRHGSSLYYAMDYWGQGTSVTVSS
VL: DIQMTQSPSSLSASLGERVSLTCRASQEISGYLGWLQQKPDGTIKRLIYAASTLDSGVPKRFSGSRSGSAYSLTISSLESEDFADYYCLQYASYPYTFGGGTKLEIK
notes: also called 5G3 mAb

- Kd [1]: 1.9 nM
- Kd [2]: ~1.9 nM
- binding result [3]: no binding
- binding result [11]: no binding
- binding result [12]: no binding
- Kd [9]: ~2 nM
B3: 4G9 anti-human ROR2 monoclonal antibody (antibody, IgG2a, V domains shown)
VH: QVQLQQSGAELVRPGASVKLSCKALGYTFTDYEMHWVKQTPVHGLEWIGAIHPGSGGTAYNQKFKGKATLTADKSSSTAYMELSRLTSEDSAVYYCTRRRPRFYGMDYWGQGTSVTVSS
VL: DIVMTQAAPSVPVTPGESVSISCRSSKSLLHSNGNTYLYWFLQRPGQSPQLLIYRMSNLASGVPDRFSGSGSGTAFTLRISRVEAEDVGVYYCMQHLEYPLTVGAGTKLELK
notes: Used conjugated with Alexa647 in flow cytometry and with pHrodo in the internalisation assay; also called 4G9 mAb

- Kd [2]: > 40 nM
- binding result [3]: no binding
- binding result [4]: no binding
- binding result [6]: no binding
- binding result [7]: no binding
- binding result [12]: no binding
- binding result [8]: no binding
- binding result [16]: no binding
B6: 5C11 anti-human ROR2 monoclonal antibody (antibody, IgG1, V domains shown)
VH: EVQLVESGGDLVKPGGSLKLSCAASGFTFSNYGMSWVRQTPDKRLEWVATISSGGGSTYYPDSVKGRFTISRDNAKNSLYLQMSSLKSEDTAMYYCARHPYDYGYYFDYWGQGTTLTVSS
VL: DILLTQSPDILSVSPGERVSFSCRASQSIGTSIHWYQQRTNGSPRLLIKYASESISGIPSRFSGSGSGTDFTLSINSVESEDIADYYCQQSDSWPFPFGSGTKLEKK
notes: also called 5C11 mAb
